Biological target: T1, Polyhistidine (His) tagged ERα ligand binding domain (amino acids 302–552) (UniProt P03372 302-552)
T1 construct: Detected on the array by a penta-His Alexa Fluor 488 antibody; Always tested with E2, DES or solvent (2% DMSO); also called ERα-LBD; source: partly purified from Escherichia coli (Qiagen)
T1 sequence (looked up): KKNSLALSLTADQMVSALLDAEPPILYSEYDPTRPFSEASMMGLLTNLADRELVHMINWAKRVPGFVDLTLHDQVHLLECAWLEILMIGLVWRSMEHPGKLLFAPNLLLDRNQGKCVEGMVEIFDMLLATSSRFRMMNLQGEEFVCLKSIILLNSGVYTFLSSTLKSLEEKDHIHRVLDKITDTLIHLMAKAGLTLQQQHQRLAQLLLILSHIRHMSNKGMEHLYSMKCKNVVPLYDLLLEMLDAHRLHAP
Test: peptide or protein array; MARCoNI, PamChip peptide microarray: coregulator motif peptides immobilised; His-ERα-LBD 10 nM (partly purified) in solution with E2 (10^-12 to 10^-5 M), detected with penta-His Alexa Fluor 488 antibody 25 nM; 20 °C; 20 mM Tris-HCl pH 7.5, 500 mM NaCl, 0.2% BSA, 0.05% Tween 20, 2% DMSO
Conditions: both partners purified

B1: TRRAP_3535_3557_C3535S/C3555S (peptide, UniProt Q9Y4A5 3535-3557, looked up)
peptide: SLTESRREERVLQLLRLLNPSLE
notes: Immobilised on the PamChip; also called TRRAP_3535_3557_C3535S/C3535S; source: bought: PamChip peptide microarray, PamGene International BV
Q: Does B1 bind?
A: binds
